Assay results: publication PMC9667838

Biological target: Secreted form of the peptidase domain (PD) of ACE2 (human)
Test: BLI

Row | Substance | Kd [nM]
1 | Receptor binding domain (RBD) of the spike glycoprotein of SARS-CoV-2 Omicron subvariant BA.2 (from UniProt P0DTC2 319-541) (domain or fragment) | 4.15
2 | Receptor binding domain (RBD) of the spike glycoprotein of SARS-CoV-2 Omicron subvariants BA.4/BA.5 (from UniProt P0DTC2 319-541) (domain or fragment) | 4.55
